Laboratory results taken from patent US20160264649A1.

What was measured:
Experiment in all cases: cell-based or functional assay
[1] = molecular target: HIV-1 Env of isolate MGRM-D-002 (subtype D) (HIV-1)
[2] = molecular target: HIV-1 Env of isolate MGRM-D-029 (subtype D) (HIV-1)
[3] = molecular target: HIV-1 Env of pseudovirus isolate MGRM-G-024 (subtype G) (HIV-1)
[4] = molecular target: HIV-1 Env of pseudovirus isolate MGRM-G-015 (subtype G) (HIV-1)
[5] = molecular target: HIV-1 Env of isolate MGRM-D-021 (subtype D) (HIV-1)
[6] = molecular target: HIV-1 Env of pseudovirus isolate MGRM-G-009 (subtype G) (HIV-1)
[7] = molecular target: HIV-1 Env of isolate MGRM-F1-022 (subtype F) (HIV-1)
[8] = molecular target: HIV-1 Env of isolate MGRM-F1-015 (subtype F) (HIV-1)
[9] = molecular target: HIV-1 Env of isolate MGRM-F1-004 (subtype F) (HIV-1)
[10] = molecular target: HIV-1 Env of isolate MGRM-F1-023 (subtype F) (HIV-1)
[11] = molecular target: HIV-1 Env of isolate MGRM-F1-014 (subtype F) (HIV-1)
[12] = molecular target: HIV-1 Env of pseudovirus isolate MGRM-G-014 (subtype G) (HIV-1)
[13] = molecular target: HIV-1 Env of isolate MGRM-D-003 (subtype D) (HIV-1)
[14] = molecular target: HIV-1 Env of isolate MGRM-D-018 (subtype D) (HIV-1)
[15] = molecular target: HIV-1 Env of isolate MGRM-F1-016 (subtype F) (HIV-1)
[16] = molecular target: HIV-1 Env of isolate MGRM-F1-013 (subtype F) (HIV-1)
[17] = molecular target: HIV-1 Env of isolate MGRM-D-014 (subtype D) (HIV-1)
[18] = molecular target: HIV-1 Env of isolate MGRM-D-026 (subtype D) (HIV-1)
[19] = molecular target: HIV-1 Env of isolate MGRM-D-028 (subtype D) (HIV-1)
[20] = molecular target: HIV-1 Env of isolate MGRM-D-024 (subtype D) (HIV-1)
[21] = molecular target: HIV-1 Env of isolate MGRM-D-013 (subtype D) (HIV-1)
[22] = molecular target: HIV-1 Env of pseudovirus isolate MGRM-G-028 (subtype G) (HIV-1)
[23] = molecular target: HIV-1 Env of isolate MGRM-F1-021 (subtype F) (HIV-1)
[24] = molecular target: HIV-1 Env of isolate MGRM-F1-012 (subtype F) (HIV-1)
[25] = molecular target: HIV-1 Env of isolate MGRM-D-019 (subtype D) (HIV-1)
[26] = molecular target: HIV-1 Env of pseudovirus isolate MGRM-G-011 (subtype G) (HIV-1)
[27] = molecular target: HIV-1 Env of isolate 98CN009 (subtype CRF07_BC) (HIV-1)
[28] = molecular target: HIV-1 Env of pseudovirus isolate MGRM-G-006 (subtype G) (HIV-1)
[29] = molecular target: HIV-1 Env of pseudovirus isolate MGRM-G-027 (subtype G) (HIV-1)
[30] = molecular target: HIV-1 Env of isolate MGRM-D-020 (subtype D) (HIV-1)
[31] = molecular target: HIV-1 Env of isolate MGRM-F1-006 (subtype F) (HIV-1)
[32] = molecular target: HIV-1 Env of pseudovirus isolate MGRM-G-013 (subtype G) (HIV-1)
[33] = molecular target: HIV-1 Env of pseudovirus isolate MGRM-G-004 (subtype G) (HIV-1)
[34] = molecular target: HIV-1 Env of isolate MGRM-D-005 (subtype D) (HIV-1)
[35] = molecular target: HIV-1 Env of isolate MGRM-D-022 (subtype D) (HIV-1)
[36] = molecular target: HIV-1 Env of pseudovirus isolate MGRM-G-001 (subtype G) (HIV-1)
[37] = molecular target: HIV-1 Env of isolate 92UG046 (subtype D) (HIV-1)
[38] = molecular target: HIV-1 Env of isolate MGRM-D-011 (subtype D) (HIV-1)
[39] = molecular target: HIV-1 Env of pseudovirus isolate MGRM-G-019 (subtype G) (HIV-1)
[40] = molecular target: HIV-1 Env of isolate MGRM-D-016 (subtype D) (HIV-1)
[41] = molecular target: HIV-1 Env of isolate 92UG024 (subtype D) (HIV-1)
[42] = molecular target: HIV-1 Env of isolate 92UG001 (subtype D) (HIV-1)
[43] = molecular target: HIV-1 Env of isolate MGRM-D-001 (subtype D) (HIV-1)
[44] = molecular target: HIV-1 Env of pseudovirus isolate MGRM-G-025 (subtype G) (HIV-1)
[45] = molecular target: HIV-1 Env of pseudovirus isolate MGRM-G-017 (subtype G) (HIV-1)
[46] = molecular target: HIV-1 Env of isolate MGRM-D-008 (subtype D) (HIV-1)
[47] = molecular target: HIV-1 Env of isolate MGRM-D-004 (subtype D) (HIV-1)
[48] = molecular target: HIV-1 Env of isolate 92UG005 (subtype D) (HIV-1)
[49] = molecular target: HIV-1 Env of isolate MGRM-D-012 (subtype D) (HIV-1)
[50] = molecular target: HIV-1 Env of isolate MGRM-F1-010 (subtype F) (HIV-1)
[51] = molecular target: HIV-1 Env of isolate MGRM-F1-008 (subtype F) (HIV-1)
[52] = molecular target: HIV-1 Env of isolate 98CN006 (subtype CRF08_BC) (HIV-1)
[53] = molecular target: HIV-1 Env of isolate MGRM-F1-018 (subtype F) (HIV-1)
[54] = molecular target: HIV-1 Env of isolate MGRM-F1-017 (subtype F) (HIV-1)
[55] = molecular target: envelope of aMLV pseudovirus (negative control)
[56] = molecular target: HIV-1 Env of pseudovirus isolate MGRM-G-016 (subtype G) (HIV-1)
[57] = molecular target: HIV-1 Env of isolate MGRM-F1-020 (subtype F) (HIV-1)
[58] = molecular target: HIV-1 Env of isolate 92UG114 (subtype D) (HIV-1)

B1: PGT-128 (antibody, V domains shown)
VH: QPQLQESGPTLVEASETLSLTCAVSGDSTAACNSFWGWVRQPPGKGLEWVGSLSHCASYWNRGWTYHNPSLKSRLTLALDTPKNLVFLKLNSVTAADTATYYCARFGGEVLRYTDWPKPAWVDLWGRGTLVTVSS
VL: QSALTQPPSASGSPGQSITISCTGTSNNFVSWYQQHAGKAPKLVIYDVNKRPSGVPDRFSGSKSGNTASLTVSGLQTDDEAVYYCGSLVGNWDVIFGGGTKLTVL
[1]
  IC50 (neutralization): 0.011 µg/mL
[2]
  IC50 (neutralization): > 50 µg/mL
[3]
  IC50: 0.095 µg/mL
[4]
  IC50: > 50 µg/mL
[5]
  IC50 (neutralization): 0.014 µg/mL
[6]
  IC50: > 50 µg/mL
[7]
  IC50 (neutralization): 4.54 µg/mL
[8]
  IC50 (neutralization): > 50 µg/mL
[9]
  IC50 (neutralization): 0.027 µg/mL
[10]
  IC50 (neutralization): 0.007 µg/mL
[11]
  IC50 (neutralization): 0.277 µg/mL
[12]
  IC50: 0.004 µg/mL
[13]
  IC50 (neutralization): 0.019 µg/mL
[14]
  IC50 (neutralization): 0.008 µg/mL
[15]
  IC50 (neutralization): 1.21 µg/mL
[16]
  IC50 (neutralization): 12.7 µg/mL
[17]
  IC50 (neutralization): 0.013 µg/mL
[18]
  IC50 (neutralization): > 50 µg/mL
[19]
  IC50 (neutralization): > 50 µg/mL
[20]
  IC50 (neutralization): 0.067 µg/mL
[21]
  IC50 (neutralization): 8.85 µg/mL
[22]
  IC50: 0.008 µg/mL
[23]
  IC50 (neutralization): > 50 µg/mL
[24]
  IC50 (neutralization): 0.007 µg/mL
[25]
  IC50 (neutralization): > 50 µg/mL
[26]
  IC50: 8.21 µg/mL
[27]
  IC50 (neutralization): 0.025 µg/mL
[28]
  IC50: > 50 µg/mL
[29]
  IC50: 0.313 µg/mL
[30]
  IC50 (neutralization): 0.011 µg/mL
[31]
  IC50 (neutralization): 0.763 µg/mL
[32]
  IC50: 0.995 µg/mL
[33]
  IC50: > 50 µg/mL
[34]
  IC50 (neutralization): 0.051 µg/mL
[35]
  IC50 (neutralization): > 50 µg/mL
[36]
  IC50: 0.019 µg/mL
[37]
  IC50 (neutralization): > 50 µg/mL
[38]
  IC50 (neutralization): 0.007 µg/mL
[39]
  IC50: 0.01 µg/mL
[40]
  IC50 (neutralization): > 50 µg/mL
[41]
  IC50 (neutralization): > 50 µg/mL
[42]
  IC50 (neutralization): > 50 µg/mL
[43]
  IC50 (neutralization): 0.138 µg/mL
[44]
  IC50: 0.017 µg/mL
[45]
  IC50: 0.319 µg/mL
[46]
  IC50 (neutralization): 0.033 µg/mL
[47]
  IC50 (neutralization): 24.9 µg/mL
[48]
  IC50 (neutralization): 0.018 µg/mL
[49]
  IC50 (neutralization): > 50 µg/mL
[50]
  IC50 (neutralization): 16.7 µg/mL
[51]
  IC50 (neutralization): > 50 µg/mL
[52]
  IC50 (neutralization): 0.015 µg/mL
[53]
  IC50 (neutralization): 0.023 µg/mL
[54]
  IC50 (neutralization): 11.7 µg/mL
[55]
  IC50: > 50 µg/mL
[56]
  IC50: > 50 µg/mL
[57]
  IC50 (neutralization): 0.355 µg/mL
[58]
  IC50 (neutralization): 0.083 µg/mL
